Assay in all cases: cell_activity
The subject of one data set is ZFN 28404 (synthetic). Conditions: pair with 28403, HEK293.
The subject of a further data set is ZFN 18889 (synthetic). As to conditions: pair with 24859, HLA A2, HEK293; with 18881 approx 3%; A3 allele 10% and 9%.
A further data set has as its system ZFN 28386 (synthetic). Conditions: pair with 28385, HEK293.
Another data set relates to ZFN 15873 (synthetic). Conditions: pair with 15872, wt FokI, K562; approx 28% with EL/KK.
The subject of the next data set is ZFN 15487 (synthetic). Conditions: pair with 15486, K562; approx 1% in RAJI.
The test system of the next data set is ZFN 15506 (synthetic). Conditions: pair with 15507, K562.
A further data set has as its system ZFN 15909 (synthetic). As to conditions: pair with 15910, EL/KK FokI, K562; 6 and 11% with wt FokI.
Another data set deals with ZFN 28393 (synthetic). As to conditions: pair with 28394, HEK293.
Another data set relates to ZFN 28394 (synthetic). Conditions: pair with 28393, HEK293.
Another data set relates to ZFN 25539 (synthetic). As to conditions: pair with 25540, 10 ug mRNA, primary T cells; background 2.4%.
The next data set concerns ZFN 15507 (synthetic). Conditions: pair with 15506, K562.
A further data set concerns ZFN 18881 (synthetic). Conditions: pair with 18889, HLA A2, HEK293; A3 allele 9%.
Another data set relates to ZFN 28403 (synthetic). Conditions: pair with 28404, HEK293.
A further data set deals with ZFN 24859 (synthetic). As to conditions: pair with 18889, HLA A2, HEK293; A3 allele 10%.
Another data set relates to ZFN 15910 (synthetic). As to conditions: pair with 15909, EL/KK FokI, K562; 6 and 11% with wt FokI.
The next data set deals with ZFN 28405 (synthetic). As to conditions: pair with 28406, HEK293.
Another data set relates to ZFN 16787 (synthetic). As to conditions: pair with 16783, 10 ug mRNA, primary T cells; background 2.4%.
Another data set concerns ZFN 28406 (synthetic). As to conditions: pair with 28405, HEK293.
The subject of a further data set is ZFN 28385 (synthetic). As to conditions: pair with 28386, HEK293.
The test system of the next data set is ZFN 25540 (synthetic). Conditions: pair with 25539, 10 ug mRNA, primary T cells; background 2.4%.
The subject of a further data set is ZFN 15872 (synthetic). Conditions: pair with 15873, wt FokI, K562; approx 28% with EL/KK.

In the case of “CTGGATGGGGCTTGGCTGATGGTCAGCA (double strand) [28404 site]”, in the data set with ZFN 28404 (synthetic), the activity (% gene modification) stood at 64.

As to “GTATGGCTGCGACGTGGGGTCGGACGGG (double strand) [18889 site]”, the activity in the data set with ZFN 18889 (synthetic) was 6 % NHEJ.

Sequence “AGAAGGCTGTGGGCTCCTCAGAGAAAAT (double strand) [28386 site]” came in with an activity (% gene modification) in the data set on ZFN 28386 (synthetic) of 39.

Take “GAGGAGAGCAGGCCGATTACCTGACCCA (double strand) [15873 site]”: in the data set on ZFN 15873 (synthetic), the activity came to 13 % NHEJ.

“CTACTCGGGCCATCGGCGGCTGCCTCGG (double strand) [15487 site]” showed an activity (% gene modification) in the data set on ZFN 15487 (synthetic) of 15.

In turn, “TTGATGTCAGGGAAGATCTCTCTGATGA (double strand) [15506 site]” registered an activity (% gene modification) with ZFN 15506 (synthetic) of 2.

For “TCTCCCAGGGTGGTTCAGTGGCAGAATT (double strand) [15909 site]”, the activity in the data set on ZFN 15909 (synthetic) is 14 % NHEJ.

With “TTGATTCGAGACATGGTGTAGGTGAAGC (double strand) [28393 site]”, the activity (% gene modification) with ZFN 28393 (synthetic) came out at 49.

In the case of “TTGCGGATCCGGGAGCAGCTTTTCTCCT (double strand) [28394 site]”, in the data set on ZFN 28394 (synthetic), the activity (% gene modification) came out at 49.

With “TTGTTGCTCCAGGCCACAGCACTGTTGC (double strand) [25539 site]”, the activity (% CD3-negative cells) with ZFN 25539 (synthetic) was 28.1.

As for “GCTCGAAGGCTTGGTGGCCGGGGCCAGT (double strand) [15507 site]”, in the data set with ZFN 15507 (synthetic), the activity (% gene modification) was 2.

In the data set on ZFN 18881 (synthetic), “TTATCTGGATGGTGTGAGAACCTGGCCC (double strand) [18881 site]” registered an activity of 3 % NHEJ.

Sequence “GCCCGCGGGCAGTTCTGCGCGGGGGTCA (double strand) [28403 site]” displayed an activity (% gene modification) with ZFN 28403 (synthetic) of 64.

In the data set on ZFN 24859 (synthetic), “TCCTCTGGACGGTGTGAGAACCTGGCCC (double strand) [24859 site]” registered an activity of 6 % NHEJ.

Turning to “GCGGGGGAAAGAGAGGAGGAGAGAAGGA (double strand) [15910 site]”, the activity with ZFN 15910 (synthetic) turned out to be 14 % NHEJ.

“CGCAAGAGGCTGGAGAGGCTGAGGACTG (double strand) [28405 site]” showed an activity (% gene modification) in the data set on ZFN 28405 (synthetic) of 34.

In the case of “TCTCGGAGAATGACGAGTGGACCCAGGA (double strand) [16787 site]”, the activity (% CD3-negative cells) with ZFN 16787 (synthetic) worked out at 9.4.

The sequence “CCACAGCCAGAGCCTCAGCAGGAGCCTG (double strand) [28406 site]” displayed an activity (% gene modification) in the data set with ZFN 28406 (synthetic) of 34.

“ACTCTGGGGTAGATGGAGAGCAGTACCT (double strand) [28385 site]” displayed an activity (% gene modification) with ZFN 28385 (synthetic) of 39.

The sequence “CTGACTTTGCATGTGCAAACGCCTTCAA (double strand) [25540 site]” had an activity (% CD3-negative cells) in the data set with ZFN 25540 (synthetic) of 28.1.

In the case of “GAAATAAGGCATACTGGTATTACTAATG (double strand) [15872 site]”, in the data set with ZFN 15872 (synthetic), the activity worked out at 13 % NHEJ.

(Values after patent publication US20120060230.)
